# T1: human SPNS2 K136A mutant (human, UniProt Q8IVW8 1-549)
# T1 sequence: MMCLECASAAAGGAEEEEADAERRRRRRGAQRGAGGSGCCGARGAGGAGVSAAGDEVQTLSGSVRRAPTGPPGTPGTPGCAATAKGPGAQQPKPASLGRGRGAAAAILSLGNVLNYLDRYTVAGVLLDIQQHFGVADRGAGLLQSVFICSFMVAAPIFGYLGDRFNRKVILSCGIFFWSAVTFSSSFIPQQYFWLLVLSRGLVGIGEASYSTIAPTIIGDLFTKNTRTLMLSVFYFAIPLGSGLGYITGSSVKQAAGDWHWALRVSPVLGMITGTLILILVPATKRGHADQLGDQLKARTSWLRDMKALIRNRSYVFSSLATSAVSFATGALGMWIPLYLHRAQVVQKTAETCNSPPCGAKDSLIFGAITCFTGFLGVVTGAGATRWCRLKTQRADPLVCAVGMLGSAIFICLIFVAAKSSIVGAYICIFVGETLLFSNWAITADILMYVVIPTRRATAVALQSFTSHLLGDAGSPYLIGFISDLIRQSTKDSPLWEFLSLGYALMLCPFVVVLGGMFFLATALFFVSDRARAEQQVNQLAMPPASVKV
# T2: human SPNS2 W259A mutant (human, UniProt Q8IVW8 1-549)
# T2 sequence: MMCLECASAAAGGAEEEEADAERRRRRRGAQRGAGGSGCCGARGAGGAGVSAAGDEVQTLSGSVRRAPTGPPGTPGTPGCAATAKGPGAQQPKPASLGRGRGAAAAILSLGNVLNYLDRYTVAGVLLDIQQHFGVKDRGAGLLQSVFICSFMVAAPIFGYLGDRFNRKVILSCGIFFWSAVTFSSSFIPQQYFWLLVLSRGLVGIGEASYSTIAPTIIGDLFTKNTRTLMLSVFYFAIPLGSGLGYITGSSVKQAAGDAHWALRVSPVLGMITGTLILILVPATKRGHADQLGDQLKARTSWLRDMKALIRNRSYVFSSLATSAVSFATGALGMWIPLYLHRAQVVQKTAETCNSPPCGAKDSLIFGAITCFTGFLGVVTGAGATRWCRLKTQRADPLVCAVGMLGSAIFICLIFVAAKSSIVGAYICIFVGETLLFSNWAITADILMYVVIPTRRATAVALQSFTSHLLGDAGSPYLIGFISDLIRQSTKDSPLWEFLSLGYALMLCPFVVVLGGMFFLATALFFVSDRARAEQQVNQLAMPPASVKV
# T3: human SPNS2 R200A mutant (human, UniProt Q8IVW8 1-549)
# T3 sequence: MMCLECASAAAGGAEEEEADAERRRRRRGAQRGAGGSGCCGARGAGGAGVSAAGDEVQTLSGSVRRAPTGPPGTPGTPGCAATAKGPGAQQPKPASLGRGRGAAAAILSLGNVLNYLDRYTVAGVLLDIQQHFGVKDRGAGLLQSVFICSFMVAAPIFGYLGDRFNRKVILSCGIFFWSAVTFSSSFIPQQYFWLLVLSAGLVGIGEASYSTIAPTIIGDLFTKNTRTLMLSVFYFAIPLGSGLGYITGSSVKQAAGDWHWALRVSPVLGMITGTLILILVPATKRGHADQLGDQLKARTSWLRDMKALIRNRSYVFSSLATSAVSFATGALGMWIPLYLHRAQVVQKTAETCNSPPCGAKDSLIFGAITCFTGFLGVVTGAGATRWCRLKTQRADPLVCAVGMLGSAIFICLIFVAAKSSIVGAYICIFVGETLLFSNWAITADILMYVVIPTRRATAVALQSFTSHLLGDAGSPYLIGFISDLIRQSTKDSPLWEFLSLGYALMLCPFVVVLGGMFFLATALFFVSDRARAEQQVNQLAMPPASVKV
# T4: human SPNS2 (human, UniProt Q8IVW8 1-549)
# T4 sequence: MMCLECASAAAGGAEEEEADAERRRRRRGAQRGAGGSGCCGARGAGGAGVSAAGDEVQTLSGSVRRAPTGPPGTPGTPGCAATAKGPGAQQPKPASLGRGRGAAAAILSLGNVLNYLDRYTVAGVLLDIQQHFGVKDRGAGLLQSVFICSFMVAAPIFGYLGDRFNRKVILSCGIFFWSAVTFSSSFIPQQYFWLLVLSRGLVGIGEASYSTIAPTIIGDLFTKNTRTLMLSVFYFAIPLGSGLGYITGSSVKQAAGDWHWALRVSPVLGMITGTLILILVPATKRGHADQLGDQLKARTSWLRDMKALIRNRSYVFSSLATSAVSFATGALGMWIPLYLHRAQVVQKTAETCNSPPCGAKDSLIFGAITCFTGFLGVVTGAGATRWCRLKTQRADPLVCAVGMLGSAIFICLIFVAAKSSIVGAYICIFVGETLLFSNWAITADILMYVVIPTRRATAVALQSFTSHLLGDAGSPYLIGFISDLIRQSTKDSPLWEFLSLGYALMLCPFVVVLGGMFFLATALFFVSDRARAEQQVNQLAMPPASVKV
# T5: human SPNS2 F133A mutant (human, UniProt Q8IVW8 1-549)
# T5 sequence: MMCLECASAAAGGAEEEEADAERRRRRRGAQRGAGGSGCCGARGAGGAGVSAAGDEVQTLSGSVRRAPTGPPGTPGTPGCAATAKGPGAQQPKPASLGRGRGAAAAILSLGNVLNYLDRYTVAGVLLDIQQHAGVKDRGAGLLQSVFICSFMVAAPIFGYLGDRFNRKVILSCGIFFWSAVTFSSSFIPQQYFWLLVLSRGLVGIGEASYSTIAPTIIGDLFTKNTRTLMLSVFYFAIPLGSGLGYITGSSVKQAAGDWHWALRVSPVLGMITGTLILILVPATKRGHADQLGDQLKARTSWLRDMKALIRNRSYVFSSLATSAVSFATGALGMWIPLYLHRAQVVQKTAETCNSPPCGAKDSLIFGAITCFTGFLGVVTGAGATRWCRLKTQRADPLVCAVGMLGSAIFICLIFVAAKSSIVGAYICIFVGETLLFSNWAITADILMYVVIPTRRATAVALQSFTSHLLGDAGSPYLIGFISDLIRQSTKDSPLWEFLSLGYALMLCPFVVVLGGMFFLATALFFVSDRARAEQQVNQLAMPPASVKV
# Columns and labels:
# [1] = target: T1, human SPNS2 K136A mutant; experiment: flow cytometry
# [2] = target: T2, human SPNS2 W259A mutant; experiment: flow cytometry
# [3] = target: T3, human SPNS2 R200A mutant; experiment: flow cytometry
# [4] = target: T4, human SPNS2; experiment: cell-based or functional assay
# [5] = target: T5, human SPNS2 F133A mutant; experiment: flow cytometry
binder,measurement,setting,value
"33-0503E (antibody, IgG2b, V domains shown) VH: EVQLVESGGGLVRPGGSMKLSCGASGFIFDNYYMTWVRQAPTKGLEWVASISSSGGNTYYRDSVRGRFTISRDNAGNTLSLQMGSLRAEDTATYHCAKEGYRGRYFDYWGQGVMVTVSS VL: QVVLTQPNSVSTNLGSTVKLSCKRTTGNIGSNYVNWYQQHEGRSPTTMIYRDDERPDGVPDRFSGSIDRSSNSALLTINNVQTEDEAEYFCQSYSSGIIFGGGTKLTVL",binding ratio vs native type,[1],< 0.5 ratio
same,binding ratio vs native type,[2],< 0.5 ratio
same,binding ratio vs native type,[3],< 0.5 ratio
same,"pIC50, S1P transport inhibition (S1PR3 Ca2+ FLIPR bioassay)",[4],7 pIC50 (M)
"65-0810G (antibody, IgG2b, V domains shown) VH: EVHLVESGGGLVQPGRSMKLSCTASGFTFNNYYMAWVRQAPTKGLEWVASISTGGGYTYYRDSVKGRFTISRDNTGNTLYLQMDSLRSEDTATYYCARCWELPYWGQGVMVTVSS VL: QFVLTQPNSVSTNLGSTVKLSCRRSSGNIGNNYVNWYRQHEGRSPTTMIYRDDTRPDGVPNRFSGSIDRSSNSALLTINNVRPEDEAYYFCQSYSGSIYIFGGGTKLTVL",binding ratio vs native type,[5],< 0.5 ratio
same,binding ratio vs native type,[1],< 0.5 ratio
same,binding ratio vs native type,[2],< 0.5 ratio
same,binding ratio vs native type,[3],< 0.5 ratio
same,"pIC50, S1P transport inhibition (S1PR3 Ca2+ FLIPR bioassay)",[4],7.2 pIC50 (M)
"49-0703G (antibody, IgG2b, V domains shown) VH: EVQLVESGGGLVQPGRSMKLSCAASGFTFSNHYMAWVRQAPTKGLEWVASISTGGGNTYYRDSVKGRFTISRDNAKSTLYLQMDSLRSEDTATYYCARQDYSNYMGGFAYWGQGTLVTVSS VL: QFVLTQPNSVSTNLGSTVKLSCKRSTGNIGNNYVNWYQQYEGRSPTTMIYRDDERPDGVPDRFSGSIDRSSNSALLTINNVQTEDEADYFCQSFSNGMFIFAGGTQLTVL",binding ratio vs native type,[5],< 0.5 ratio
same,binding ratio vs native type,[1],< 0.5 ratio
same,binding ratio vs native type,[2],< 0.5 ratio
same,binding ratio vs native type,[3],< 0.5 ratio
same,"pIC50, S1P transport inhibition (S1PR3 Ca2+ FLIPR bioassay)",[4],7 pIC50 (M)

# Source: patent US20210147523A1 (TEIJIN PHARMA, published 2021)
